Laboratory results: patent US20110059889A1 (SYNTONIX PHARMACEUTICALS, published 2011)
Read-outs that look alike come from different tables or passages of the source. Numbered stars: 1 amine (or outer) side, 2 acyl side, 3 side chain; on linkers, the order of the positions; unused ones are H or OH. Bridge positions count the residues as written; N and C are the ends. Square brackets hold non-standard residues; d marks the D form. Ends that are not written are not given here. X2 = (3R)‑3‑amino‑1‑carboxymethyl‑valerolactam, O=C1[C@H](N[*:1])CCCN1CC(=O)[*:2]; X1 = 3‑amino‑2‑oxo‑1‑piperidine‑acetic acid, O=C1C(N[*:1])CCCN1CC(=O)[*:2]; NMeL = CN[C@@H](CC(C)C)C(=O)O; Pen = CC(C)(S)[C@H](N)C(=O)O; NMeA = CN[C@@H](C)C(=O)O; Sar = CNCC(=O)O

B1: Peptide No. 115 (peptide)
peptide: QRF[Pen]TGHFGGFYPCNGP-NH2
modifications: disulfide 4-14; N-terminus assumed
SMILES: C[C@@H](O)[C@@H]1NC(=O)[C@@H](NC(=O)[C@H](Cc2ccccc2)NC(=O)[C@H](CCCNC(=N)N)NC(=O)[C@@H](N)CCC(N)=O)C(C)(C)SSC[C@@H](C(=O)N[C@@H](CC(N)=O)C(=O)NCC(=O)N2CCC[C@H]2C(N)=O)NC(=O)[C@@H]2CCCN2C(=O)[C@H](Cc2ccc(O)cc2)NC(=O)[C@H](Cc2ccccc2)NC(=O)CNC(=O)CNC(=O)[C@H](Cc2ccccc2)NC(=O)[C@H](Cc2c[nH]cn2)NC(=O)CNC1=O
B2: Peptide No. 237 (peptide)
peptide: RF[Pen]TGHFGGWYPC-NH2
modifications: disulfide 3-13; N-terminus assumed
SMILES: C[C@@H](O)[C@@H]1NC(=O)[C@@H](NC(=O)[C@H](Cc2ccccc2)NC(=O)[C@@H](N)CCCNC(=N)N)C(C)(C)SSC[C@@H](C(N)=O)NC(=O)[C@@H]2CCCN2C(=O)[C@H](Cc2ccc(O)cc2)NC(=O)[C@H](Cc2c[nH]c3ccccc23)NC(=O)CNC(=O)CNC(=O)[C@H](Cc2ccccc2)NC(=O)[C@H](Cc2c[nH]cn2)NC(=O)CNC1=O
B3: Peptide No. 205 (peptide)
peptide: RFCTGHFXLYPC
modifications: not fully specified; Pen 3; X 8 = 3(S)-2-amino-2-oxo-1-azepine acetic acid (so in the source) in place of Gly-Gly; disulfide 3-12; C-terminal amide
B4: Peptide No. 214 (peptide)
peptide: RFCTGHFXLYPC
modifications: not fully specified; Pen 3; X 8 = 3(S)-3-amino-2-oxo-1-pyrrolidine acetic acid in place of Gly-Gly; disulfide 3-12; C-terminal amide
B5: Peptide No. 228 (peptide)
peptide: RF[Pen][NMeA]GHF[X2][NMeL]YPC-NH2
modifications: disulfide 3-12; N-terminus assumed
SMILES: CC(C)C[C@H]1C(=O)N[C@@H](Cc2ccc(O)cc2)C(=O)N2CCC[C@H]2C(=O)N[C@H](C(N)=O)CSSC(C)(C)[C@H](NC(=O)[C@H](Cc2ccccc2)NC(=O)[C@@H](N)CCCNC(=N)N)C(=O)N(C)[C@@H](C)C(=O)NCC(=O)N[C@@H](Cc2c[nH]cn2)C(=O)N[C@@H](Cc2ccccc2)C(=O)N[C@@H]2CCCN(CC(=O)N1C)C2=O
B6: Peptide No. 201 (peptide)
peptide: QRF[Pen]TGHFGGLYPCNGP-NH2
modifications: disulfide 4-14; also: N-terminally linked homodimer via ethylene glycol-bis(succinic acid) linker
notes: N-terminally linked dimer
B7: Peptide No. 279 (peptide)
peptide: RF[Pen]TGHFG[Sar][NMeL]YPC-NH2
modifications: disulfide 3-13; also: dimer: N-termini joined by Bis-dPEG6 diacid linker
notes: N-terminally linked dimer; drawing CHEM-US-00123
B8: Peptide No. 280 (peptide)
peptide: RFCTGHFGGLYPC
modifications: Pen 3; Sar 9; NMeLeu 10; disulfide 3-13 within each chain; C-termini joined through the two amino groups of a branching Lys
notes: C-terminally linked dimer; drawing CHEM-US-00124
B9: Peptide No. 287 (peptide)
peptide: RF[Pen]TGHFG[Sar][NMeL]YPCG
modifications: disulfide 3-13; also: dimer: C-termini joined through a branching Lys
notes: C-terminally linked dimer; drawing CHEM-US-00131
B10: Peptide No. 288 (peptide)
peptide: RF[Pen]TGHFG[Sar][NMeL]YPCGG
modifications: disulfide 3-13; also: dimer: C-termini joined through a branching Lys
notes: C-terminally linked dimer; drawing CHEM-US-00132

Experiments:
[1] = biological target: T1, soluble human FcRn (shFcRn) (human, UniProt P55899 24-297; P61769 21-119); experiment: IgG competition ELISA
T1 construct: Biotinylated for the ELISA, amine-coupled to a CM5 chip for SPR; also called biotinylated shFcRn
Method: (§1) The wells were coated with 100 μl/well of 1 μg/ml biotinylated-shFcRn in Buffer A. The plate was sealed and incubated at 37° C. for 2 hours. Afterwards, the plate was washed with 200 μl/well of Buffer B (Buffer B: 100 mM MES pH 6, 150 mM NaCl, 0.5% BSA IgG-free (Jackson ImmunoResearch, West Grove, Pa.), 0.05% Tween-20). […] To allow for mixing, the plate was rocked for 2 minutes, sealed and incubated at 37° C. for 2 hours. […] The plate was covered, incubated for 30 minutes at room temperature and washed 4 times with 200 μl/well of ice-cold buffer B. SureBlue TMB substrate solution (100 μl/well, KPL, Gaithersburg, Md.) was added and the plate was allowed to incubate at room temperature until color developed, which took 5 to 10 minutes. Once color developed, 100 μl/well of TMB stop solution (KPL, Gaithersburg, Md.) was added and the absorbance was measured at 450 nm. The data was plotted as absorbance vs. peptide concentration to derive the inhibitory concentration 50% (IC₅₀) values.

[2] = biological target: T1, soluble human FcRn (shFcRn); experiment: SPR pH 6
Method: (§2) The following steps were performed to cross-link soluble human or cynomolgus FcRn to the dextran surface of a CM5 sensor chip (Biacore AB, Uppsala, Sweden) by an amine coupling reaction involving 1-ethyl-(3-dimethylaminopropyl)-carbodiimide hydrochloride (EDC) (Biacore AB, Uppsala, Sweden) and N-hydroxysuccinimide (NHS) (Biacore AB, Uppsala, Sweden) as recommended by Biacore (BIAapplications Handbook, version AB, section 4.2, Biacore AB, Uppsala, Sweden). […] Residual sites on the FcRn flow cell were blocked with 1 M ethanolamine hydrochloride pH 8.5 (Biacore AB, Uppsala, Sweden). A control flow cell was blocked with ethanolamine for reference subtraction. For analysis of the monomeric peptides, FcRn was coated to a final density of 4000-5000 response units (RU). For analysis of the peptide dimers, FcRn was coated to a density of 2000-2500 RU. All SPR measurements were performed using a BIACORE 3000 Instrument (Biacore AB Uppsala, Sweden). For measurements done at either pH 6 or pH 7.4, experiments were performed in 50 mM phosphate, 100 mM sodium chloride, 0.01% surfactant P20 (Biacore AB, Uppsala, Sweden).
(§3) Ten, 2-fold dilutions of the peptide were injected over the FcRn-CM5 chip at a rate of 20 μl/min for 2 min. The peptide was dissociated from the chip for 2.5 minutes with buffer. Any remaining peptide was removed from the chip with a 30 second injection of HBS-P buffer (Biacore AB, Uppsala, Sweden) at a rate of 30 μl/min. Sensorgrams were generated and analyzed using BiaEval software version 3.1 (Biacore AB, Uppsala, Sweden). The equilibrium RU observed for each injection was plotted against concentration. The equilibrium KD values were derived by analysis of the plots using the steady state affinity model included in the BiaEval software.

[3] = biological target: T1, soluble human FcRn (shFcRn); experiment: IgG competition ELISA; remark: listed apart in the source
Method: as §1

[4] = biological target: T1, soluble human FcRn (shFcRn); experiment: SPR pH 6; remark: listed apart in the source
Method: as §2, §3

[5] = biological target: T1, soluble human FcRn (shFcRn); experiment: IgG competition ELISA; remark: listed apart in the source
Method: as §1

T1 sequence (P55899 24-297 limits assumed, chain 1 of 2): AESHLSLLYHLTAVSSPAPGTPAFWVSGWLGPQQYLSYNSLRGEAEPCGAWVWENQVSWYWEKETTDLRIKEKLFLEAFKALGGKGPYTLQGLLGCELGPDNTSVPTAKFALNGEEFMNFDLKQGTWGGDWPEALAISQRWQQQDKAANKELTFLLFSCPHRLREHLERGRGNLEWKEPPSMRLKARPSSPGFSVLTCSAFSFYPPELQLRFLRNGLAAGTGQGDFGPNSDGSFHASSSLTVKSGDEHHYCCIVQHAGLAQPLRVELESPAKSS
T1 sequence (P61769 21-119 limits assumed, chain 2 of 2): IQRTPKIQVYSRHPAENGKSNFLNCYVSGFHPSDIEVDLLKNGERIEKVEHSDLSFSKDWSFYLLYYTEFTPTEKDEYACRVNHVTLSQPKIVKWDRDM

Row | Binder | IC50 [3] | Kd [4] | IC50 [5] | other results
1 | B1 |  |  |  | IC50 [1]: 4100 nM; Kd [2]: 400 nM
2 | B2 |  |  |  | IC50 [1]: 2800 nM; Kd [2]: 140 nM
3 | RF[Pen]TGHF[X1]LYPC-NH2 (disulfide 3-12) [Peptide No. 178] | 660 nM | 160 nM |  | 
4 | RF[Pen]TGHF[X1]LYPC-NH2 (disulfide 3-12) [Peptide No. 179] | 7200 nM | 670 nM |  | 
5 | B3 | 640 nM | 103 nM |  | 
6 | B4 | 2300 nM | 280 nM |  | 
7 | B5 | 1100 nM | 145 nM |  | 
8 | B6 |  |  | 26 nM | 
9 | B7 |  |  | 7 nM | 
10 | B8 |  |  | 25 nM | 
11 | B9 |  |  | 20 nM | 
12 | B10 |  |  | 16 nM | 
